Test results from publication PMC6234505.

Biological target: GST-SHP2 PTP DAQA (substrate trapping mutant D425A/Q506A)
Experiment: pull-down

fold more pulled down than by GST-SHP2 WT: 14 fold
Substance: YFP-GluN2B, tyrosine phosphorylated, in cell lysate (from UniProt Q00960 27-1482) (receptor)
